# Test results as given in patent publication US10538591B2, “Anti-fibulin-3 antibodies and uses thereof” (THE BRIGHAM AND WOMEN'S HOSPITAL, INC., priority 2014, dated 2020).
# Values joined by “and” are separate entries in the source; they are usually repeats but may differ in a detail not shown here. Equal entries are not always repeated.
# What was measured:
# [1] = Acute toxicity, single IV injection dose-escalation; type: in vivo, athymic mice; set-up: Endpoint weight / Endpoint weight Average: unit not given here; Pre-inject weight / Pre-inject weight Average: unit: g; settings: for Endpoint weight Average / Pre-inject weight Average: group average; for Endpoint weight / Pre-inject weight: individual mouse
# Protocol: Table 2 summarizes the results of acute toxicity assays for mAb428.2 injected intravenously (IV) into mice. A dose-escalation study was performed with athymic mice that received a single IV injection of mAb428.2 (purified in low-endotoxin conditions). Doses ranged from 0.1 to 30 mg/kg and mice were observed (and weighed) for periods ranging from 15 minutes to 14 days after injection. Mice were perfused with 4% paraformaldehyde and several organs were recovered, processed for histochemistry and analyzed by a specialist in rodent histopathology. Note that recovered organs and tissues for FFPE+H&E processing were: cerebrum, cerebellum, eyes, liver, kidney, skin, forepaws (to assess connective tissue). This study was performed independently at the Beth Israel Deaconess Medical Center Preclinical Murine Pharmacogenomics Core and tissues were evaluated at the Dana-Farber/Harvard Cancer Center Rodent Histopathology Core.
# [2] = tested on: GBM34 glioblastoma stem cells; test: Intratumoral injection in subcutaneous GBM34 xenografts; type: in vivo, Athymic mice
# Protocol: (§1) Athymic mice received sub-cutaneous (SQ) bilateral implants of GBM34 glioblastoma stem cells (1×10^6 cells/50 μl). Tumors were allowed to grow until they reached a volume of 100 mm^3. Animals (N=5/group) were then injected with mAb428.2 (10 mg/kg) in the left-side tumor and non-immune mouse IgG1 in the right-side tumor, every two days (total: 4 injections). Mice were sacrificed when any of their tumors reached a length >18 mm. […] Growth curves were analyzed by repeated-measures ANOVA and final parameters were compared by paired T-test.
# as §1, with “received SQ” for “received sub-cutaneous (SQ)”, “Animals (N=3/group)” for “Animals (N=5/group)”, “with mAb428.3C11 (30” for “with mAb428.2 (10”, “(total: 3” for “(total: 4”, “length >=20” for “length >18”
# [3] = tested on: GBM34 glioblastoma stem cells; test: BrdU uptake in tumors after intravenous treatment; type: in vivo, mice; settings: 8×30 mg/kg IV, BrdU 1 h before euthanasia
# Protocol: Control and tumor mice studied in FIG. 11 for overall survival (treated with antibody 8×30 mg/kg, IV) were injected with 5-bromo-2′-deoxyuridine (BrdU, 50 mg/kg, IP) 1 h before euthanasia. BrdU staining of actively dividing cells. Tumors from 3 mice per group were processed for immunohistochemistry to detect BrdU uptake, corresponding to actively dividing cells. Tissue sections were imaged by fluorescence microscopy and quantified blindly using ImageJ image analysis software. DAPI was used to stain cell nuclei. Results were expressed as number of BrdU-positive cells per unit of tumor area. […] (Data not shown).
# [4] = 0.1 mg/kg IV, 15 min after injection
# [5] = 0.1 mg/kg IV, 24 h after injection
# [6] = 0.1 mg/kg IV, 4 days after injection
# [7] = 0.1 mg/kg IV, 14 days after injection
# [8] = 1 mg/kg IV, 15 min after injection
# [9] = 1 mg/kg IV, 24 h after injection
# [10] = 1 mg/kg IV, 4 days after injection
# [11] = 1 mg/kg IV, 14 days after injection
# [12] = 10 mg/kg IV, 15 min after injection
# [13] = 10 mg/kg IV, 24 h after injection
# [14] = 10 mg/kg IV, 4 days after injection
# [15] = 10 mg/kg IV, 14 days after injection
# [16] = 30 mg/kg IV, 24 h after injection
# [17] = 30 mg/kg IV, 4 days after injection
# [18] = 30 mg/kg IV, 14 days after injection
# [19] = single IV injection 0.1 to 30 mg/kg, 15 minutes to 14 days
molecule,measurement,setting,value
"mAb428.2: mouse monoclonal IgG1 kappa antibody against human fibulin-3 peptide SEQ ID NO:2; VH SEQ ID NO: 3, VL SEQ ID NO: 4 (antibody, V domains shown) VH: QIQLVQSGPELKKPGETVKISCKASGYSFTTYGMSWVKQAPGKGLKWMGWINTYSGVPTYADDFKGRFAFFLETSASTAYLQINNLKNEDTATYFCARWVDYWGQGTTLTVSS VL: DIKMTQSPSSMYASLGERVTITCKASQDIKSYLSWHQQKPWKSPKTLIYYATSLADGVPSRFSGSGSGQDYSLTISSLESDDTATYYCLQHGKSPYTFGGGTKLEIK",Endpoint weight Average,[1]; [4],24.27
same,Endpoint weight,[1]; [4],24.80 and 25.60 and 22.40
same,Endpoint weight Average,[1]; [5],25.27
same,Endpoint weight,[1]; [5],25.40 and 26.50 and 23.90
same,Endpoint weight Average,[1]; [6],24.53
same,Endpoint weight,[1]; [6],25.20 and 24.00 and 24.40
same,Endpoint weight Average,[1]; [7],23.93
same,Endpoint weight,[1]; [7],25.20 and 24.90 and 21.70
same,Pre-inject weight Average,"[1]; 0.1 mg/kg IV, endpoint 15 min",23.95
same,Pre-inject weight,"[1]; 0.1 mg/kg IV, endpoint 15 min, measured the day before injection",21.60 and 26.30 and 19.7 (*)
same,Pre-inject weight Average,"[1]; 0.1 mg/kg IV, endpoint 24 h",24.93
same,Pre-inject weight,"[1]; 0.1 mg/kg IV, endpoint 24 h",25.10 and 26.30 and 23.40
same,Pre-inject weight Average,"[1]; 0.1 mg/kg IV, endpoint 4 days",24.93
same,Pre-inject weight,"[1]; 0.1 mg/kg IV, endpoint 4 days",25.10 and 24.80 and 24.90
same,Pre-inject weight Average,"[1]; 0.1 mg/kg IV, endpoint 14 days",22.40
same,Pre-inject weight,"[1]; 0.1 mg/kg IV, endpoint 14 days",24.10 and 24.70 and 18.40
same,Endpoint weight Average,[1]; [8],24.40
same,Endpoint weight,[1]; [8],25.20 and 24.00 (2×)
same,Endpoint weight Average,[1]; [9],26.30
same,Endpoint weight,[1]; [9],25.80 and 26.30 and 26.80
same,Endpoint weight Average,[1]; [10],23.93
same,Endpoint weight,[1]; [10],25.00 and 22.80 and 24.00
same,Endpoint weight Average,[1]; [11],24.37
same,Endpoint weight,[1]; [11],24.60 and 24.00 and 24.50
same,Pre-inject weight Average,"[1]; 1 mg/kg IV, endpoint 15 min",24.77
same,Pre-inject weight,"[1]; 1 mg/kg IV, endpoint 15 min, measured the day before injection",25.30 and 24.60 and 24.40
same,Pre-inject weight Average,"[1]; 1 mg/kg IV, endpoint 24 h",26.13
same,Pre-inject weight,"[1]; 1 mg/kg IV, endpoint 24 h",25.80 and 25.90 and 26.70
same,Pre-inject weight Average,"[1]; 1 mg/kg IV, endpoint 4 days",24.23
same,Pre-inject weight,"[1]; 1 mg/kg IV, endpoint 4 days",25.30 and 22.80 and 24.60
same,Pre-inject weight Average,"[1]; 1 mg/kg IV, endpoint 14 days",24.30
same,Pre-inject weight,"[1]; 1 mg/kg IV, endpoint 14 days",24.60 and 23.80 and 24.50
same,Endpoint weight Average,[1]; [12],23.60
same,Endpoint weight,[1]; [12],23.50 and 22.90 and 24.40
same,Endpoint weight Average,[1]; [13],26.47
same,Endpoint weight,[1]; [13],26.30 and 25.60 and 27.50
same,Endpoint weight Average,[1]; [14],24.00
same,Endpoint weight,[1]; [14],24.70 and 23.60 and 23.70
same,Endpoint weight Average,[1]; [15],25.30
same,Endpoint weight,[1]; [15],25.10 and 24.80 and 26.00
same,Pre-inject weight Average,"[1]; 10 mg/kg IV, endpoint 15 min",23.60
same,Pre-inject weight,"[1]; 10 mg/kg IV, endpoint 15 min, measured the day before injection",23.60 and 23.20 and 24.00
same,Pre-inject weight Average,"[1]; 10 mg/kg IV, endpoint 24 h",26.00
same,Pre-inject weight,"[1]; 10 mg/kg IV, endpoint 24 h",26.20 and 25.00 and 26.80
same,Pre-inject weight Average,"[1]; 10 mg/kg IV, endpoint 4 days",24.03
same,Pre-inject weight,"[1]; 10 mg/kg IV, endpoint 4 days",24.70 and 24.00 and 23.40
same,Pre-inject weight Average,"[1]; 10 mg/kg IV, endpoint 14 days",24.90
same,Pre-inject weight,"[1]; 10 mg/kg IV, endpoint 14 days",24.60 and 24.40 and 25.70
same,Endpoint weight Average,[1]; [16],26.40
same,Endpoint weight,[1]; [16],27.40 and 26.30 and 25.50
same,Endpoint weight Average,[1]; [17],24.70
same,Endpoint weight,[1]; [17],25.20 and 26.30 and 22.60
same,Endpoint weight Average,[1]; [18],23.70
same,Endpoint weight,[1]; [18],25.50 and 23.70 and 21.90
same,Pre-inject weight Average,"[1]; 30 mg/kg IV, endpoint 24 h",26.20
same,Pre-inject weight,"[1]; 30 mg/kg IV, endpoint 24 h",27.40 and 26.10 and 25.10
same,Pre-inject weight Average,"[1]; 30 mg/kg IV, endpoint 4 days",23.73
same,Pre-inject weight,"[1]; 30 mg/kg IV, endpoint 4 days",24.00 and 25.30 and 21.90
same,Pre-inject weight Average,"[1]; 30 mg/kg IV, endpoint 14 days",22.90
same,Pre-inject weight,"[1]; 30 mg/kg IV, endpoint 14 days",24.20 and 23.20 and 21.30
same,maximum tolerated dose before causing toxicity (MTD),[1]; single IV injection,> 30 mg/kg
same,histopathology in tissues stained by H&E,[1]; single IV injection 0.1 to 30 mg/kg,no evidence of histopathology
same,adverse effects,[1]; [19],no adverse effects after injection
same,weight loss,[1]; [19],no weight loss
same,tumor volume and weight compared to control IgG1,"[2]; 10 mg/kg intratumoral every two days, 4 injections",reduction in tumor volume and weight
same,tumor volume and weight compared to control IgG1,"[2]; 30 mg/kg intratumoral every two days, 3 injections",reduction in tumor volume and weight
same,median volume reduction,"[2]; direct intratumoral injection, GBM stem cell xenograft",45%
same,tumor cell division (BrdU-positive cells per unit of tumor area),[3],significant decrease in tumor cell division
